Data from the Human Domainome abundance scans (Beltran et al. 2025).
± gives the uncertainty stated by the source.

B1: Tumor protein p73, residues 487 to 549; numbered along this chain, O15350 (parent)
chain: YHADPSLVSFLTGLGCPNCIEYFTSQGLQSIYHLQNLTIEDLGALKIPEQYRMTIWRGLQDLK

Variants of: B1
Experiment: abundance fitness (aPCA) (normalised: wild type 0, dead -1); higher = more abundant; growth selection in yeast, the domain comes from the species named
Details: Homo sapiens

Variant	abundance fitness
YLADPSLVSFLTGLGCPNCIEYFTSQGLQSIYHLQNLTIEDLGALKIPEQYRMTIWRGLQDLK [H2L]	0.202 ± 0.044
YSADPSLVSFLTGLGCPNCIEYFTSQGLQSIYHLQNLTIEDLGALKIPEQYRMTIWRGLQDLK [H2S]	0.274 ± 0.041
YIADPSLVSFLTGLGCPNCIEYFTSQGLQSIYHLQNLTIEDLGALKIPEQYRMTIWRGLQDLK [H2I]	0.515 ± 0.097
YEADPSLVSFLTGLGCPNCIEYFTSQGLQSIYHLQNLTIEDLGALKIPEQYRMTIWRGLQDLK [H2E]	0.066 ± 0.046
YNADPSLVSFLTGLGCPNCIEYFTSQGLQSIYHLQNLTIEDLGALKIPEQYRMTIWRGLQDLK [H2N]	0.216 ± 0.07
YQADPSLVSFLTGLGCPNCIEYFTSQGLQSIYHLQNLTIEDLGALKIPEQYRMTIWRGLQDLK [H2Q]	0.345 ± 0.058
YDADPSLVSFLTGLGCPNCIEYFTSQGLQSIYHLQNLTIEDLGALKIPEQYRMTIWRGLQDLK [H2D]	-0.073 ± 0.095
YWADPSLVSFLTGLGCPNCIEYFTSQGLQSIYHLQNLTIEDLGALKIPEQYRMTIWRGLQDLK [H2W]	0.119 ± 0.063
YCADPSLVSFLTGLGCPNCIEYFTSQGLQSIYHLQNLTIEDLGALKIPEQYRMTIWRGLQDLK [H2C]	0.197 ± 0.096
YPADPSLVSFLTGLGCPNCIEYFTSQGLQSIYHLQNLTIEDLGALKIPEQYRMTIWRGLQDLK [H2P]	0 ± 0.15
YYADPSLVSFLTGLGCPNCIEYFTSQGLQSIYHLQNLTIEDLGALKIPEQYRMTIWRGLQDLK [H2Y]	-0.031 ± 0.11
YFADPSLVSFLTGLGCPNCIEYFTSQGLQSIYHLQNLTIEDLGALKIPEQYRMTIWRGLQDLK [H2F]	0.145 ± 0.11
YVADPSLVSFLTGLGCPNCIEYFTSQGLQSIYHLQNLTIEDLGALKIPEQYRMTIWRGLQDLK [H2V]	-0.004 ± 0.043
YAADPSLVSFLTGLGCPNCIEYFTSQGLQSIYHLQNLTIEDLGALKIPEQYRMTIWRGLQDLK [H2A]	-0.094 ± 0.061
YGADPSLVSFLTGLGCPNCIEYFTSQGLQSIYHLQNLTIEDLGALKIPEQYRMTIWRGLQDLK [H2G]	-0.096 ± 0.045
YMADPSLVSFLTGLGCPNCIEYFTSQGLQSIYHLQNLTIEDLGALKIPEQYRMTIWRGLQDLK [H2M]	0.301 ± 0.1
YTADPSLVSFLTGLGCPNCIEYFTSQGLQSIYHLQNLTIEDLGALKIPEQYRMTIWRGLQDLK [H2T]	0.273 ± 0.053
YRADPSLVSFLTGLGCPNCIEYFTSQGLQSIYHLQNLTIEDLGALKIPEQYRMTIWRGLQDLK [H2R]	0.148 ± 0.037
YHWDPSLVSFLTGLGCPNCIEYFTSQGLQSIYHLQNLTIEDLGALKIPEQYRMTIWRGLQDLK [A3W]	0.209 ± 0.037
YHNDPSLVSFLTGLGCPNCIEYFTSQGLQSIYHLQNLTIEDLGALKIPEQYRMTIWRGLQDLK [A3N]	0.024 ± 0.16
YHRDPSLVSFLTGLGCPNCIEYFTSQGLQSIYHLQNLTIEDLGALKIPEQYRMTIWRGLQDLK [A3R]	0.326 ± 0.028

Variant	abundance fitness
YHHDPSLVSFLTGLGCPNCIEYFTSQGLQSIYHLQNLTIEDLGALKIPEQYRMTIWRGLQDLK [A3H]	0.101 ± 0.094
YHDDPSLVSFLTGLGCPNCIEYFTSQGLQSIYHLQNLTIEDLGALKIPEQYRMTIWRGLQDLK [A3D]	0.08 ± 0.17
YHYDPSLVSFLTGLGCPNCIEYFTSQGLQSIYHLQNLTIEDLGALKIPEQYRMTIWRGLQDLK [A3Y]	0.201 ± 0.072
YHVDPSLVSFLTGLGCPNCIEYFTSQGLQSIYHLQNLTIEDLGALKIPEQYRMTIWRGLQDLK [A3V]	0.137 ± 0.051
YHPDPSLVSFLTGLGCPNCIEYFTSQGLQSIYHLQNLTIEDLGALKIPEQYRMTIWRGLQDLK [A3P]	0.361 ± 0.099
YHKDPSLVSFLTGLGCPNCIEYFTSQGLQSIYHLQNLTIEDLGALKIPEQYRMTIWRGLQDLK [A3K]	0.358 ± 0.042
YHSDPSLVSFLTGLGCPNCIEYFTSQGLQSIYHLQNLTIEDLGALKIPEQYRMTIWRGLQDLK [A3S]	0.268 ± 0.054
YHMDPSLVSFLTGLGCPNCIEYFTSQGLQSIYHLQNLTIEDLGALKIPEQYRMTIWRGLQDLK [A3M]	0.349 ± 0.12
YHEDPSLVSFLTGLGCPNCIEYFTSQGLQSIYHLQNLTIEDLGALKIPEQYRMTIWRGLQDLK [A3E]	0.197 ± 0.063
YHIDPSLVSFLTGLGCPNCIEYFTSQGLQSIYHLQNLTIEDLGALKIPEQYRMTIWRGLQDLK [A3I]	0.405 ± 0.089
YHGDPSLVSFLTGLGCPNCIEYFTSQGLQSIYHLQNLTIEDLGALKIPEQYRMTIWRGLQDLK [A3G]	0.141 ± 0.038
YHFDPSLVSFLTGLGCPNCIEYFTSQGLQSIYHLQNLTIEDLGALKIPEQYRMTIWRGLQDLK [A3F]	0.36 ± 0.11
YHCDPSLVSFLTGLGCPNCIEYFTSQGLQSIYHLQNLTIEDLGALKIPEQYRMTIWRGLQDLK [A3C]	0.426 ± 0.062
YHLDPSLVSFLTGLGCPNCIEYFTSQGLQSIYHLQNLTIEDLGALKIPEQYRMTIWRGLQDLK [A3L]	0.311 ± 0.042
YHQDPSLVSFLTGLGCPNCIEYFTSQGLQSIYHLQNLTIEDLGALKIPEQYRMTIWRGLQDLK [A3Q]	0.311 ± 0.045
YHADKSLVSFLTGLGCPNCIEYFTSQGLQSIYHLQNLTIEDLGALKIPEQYRMTIWRGLQDLK [P5K]	0.238 ± 0.036
YHADDSLVSFLTGLGCPNCIEYFTSQGLQSIYHLQNLTIEDLGALKIPEQYRMTIWRGLQDLK [P5D]	0.201 ± 0.07
YHADESLVSFLTGLGCPNCIEYFTSQGLQSIYHLQNLTIEDLGALKIPEQYRMTIWRGLQDLK [P5E]	0.24 ± 0.049
YHADFSLVSFLTGLGCPNCIEYFTSQGLQSIYHLQNLTIEDLGALKIPEQYRMTIWRGLQDLK [P5F]	0.046 ± 0.21
YHADWSLVSFLTGLGCPNCIEYFTSQGLQSIYHLQNLTIEDLGALKIPEQYRMTIWRGLQDLK [P5W]	0.021 ± 0.043
YHADTSLVSFLTGLGCPNCIEYFTSQGLQSIYHLQNLTIEDLGALKIPEQYRMTIWRGLQDLK [P5T]	0.211 ± 0.04
